Reference: the DeepSol protein solubility set

Assay: soluble on expression in E. coli; label from the status in PepcDB or PDB records

| Sequence | soluble on expression in E. coli |
| --- | --- |
| MGSDKIHHHHHHMNEREICERIAEILNLEHDCSKGIDDLLKILEYEINEYRKSLEEQAMFMEAQIEELSRSYEEISTLLEISEIFGTFEFPLNLQDKLEKVIRLLRNVIKFESYLVHLESELTVGDLNREEIEPEIGNPEKTVLIEPGKSEKFSNLLFVPIKGNKYYGYVCFVGKEDGGVFTAGDRKIAEMTARYIASALDRLDFLKKEIERERLEEQLNIARQIQTNLLPRKIPEIGFVEADACSQPAVQVGGDYYDFFVSQEKRFLTVVGDVAGKSVPAALLMSAVRSYLKVLVTTCPDLEKLVNRLNTILCEDMTNDRFVTMAFIEISPDGTLNLINAGHNPVYFLHKGELVKIEASAIPIGITEWEYKKHTIHLKPDTFVISYSDGLTEARNEAGEEFGYERLEKILREFKGETPAELLEALRKRVKSFMGDAQQHDDMTIVVLKYKGQQEVE | not soluble |
| MAKNDKINFSTPSGFPEFLPSEKRLELYLLDTIRRVYESYGFTPIETPAVERLEVLQAKGNQGDNIIYGLEPILPPNRQAEKDKSGDTGSEARALKFDQTVPLAAYIARHLNDLTFPFARYQMDVVFRGERAKDGRFRQFRQCDIDVVGREKLSLLYDAQMPAIITEIFEAVNIGDFVIRINNRKVLTGFFQSLNISETQIKSCISIIDNLEKIGEAKVKLELEKEGINPEQTQKIIDFVKIDGSVDDVLDKLKHLSQTLPESEQFNLGVSELETVITGVRNLGVPDKRFCIDLAIARGLNYYTGTVYETTLIGHEALGSICSGGRYEELVGTFIGEKMPGVGISIGLTRLISRLLKAGILNTLPPTPAQVVVVNMQDELMPTYLKVSQQLRQAGLNVITNFEKRQLGKQFQAADKQGIRFCVIIGADEAAAQKSSLKDLQSGEQVEVALADLAEEIKRRLT | soluble |
| MKYKILLKGKQYFATINLFDGRIAMDVQVQFMAELSQLIDKLSFLSRDQLKIALKGYKPAEVHTIEFIGEHSETNVTAIASALYVTRGAVSKITKRLISRGLIVRYQKPDNQKEVYFKLTAQGQEVFEIHKKFTNYFMQRDEPIFRDSPDAVATTLAFLHQYNAFLDQKLTIKK | not soluble |
| MGSDKIHHHHHHGADFVKGDRTFAADAELGATVTTGNTETTSLKGRLDMKHELGNWENQYLLEALYKEDSGEETGKRYYGLVQGNYKFSDVNYMFANANHEIDPFTGFDSKSTISAGYGHKFVDTEKTTFAVEVGPGFQYKRLDDESAAEAGYDTEESWVAHGVMNFETEITDNSKFKQLFVADYGESLEGRSETSITANIVGALAMKFAVIVRYNSEPLDNKKSTDTETNMTLLYSF | not soluble |
| MQGKLNCEIEMEVQIFTHKNCVECNMLLEYLENKGLLGKVKIIDTELYPFLAFEKGVISTPSIFIDGKLVYAGIVDFEEFERILSGQKVTKQIDKASLVEKLMLGIVDSFAATAWLYINRDFDSFLAQKDFVMAVTGLSLLDEREGDEYYNYLRNVMVKEGDRYLEEWKPRMLRNISSNFIREIFWLYERKISKETLTQKYPVEVFAHWLMIRSGAVGRVGLRIYPLSDSTVMKRVLEAYNFMLENYDEIFNKVQKEQMELKTKNKEQVRYLQL | soluble |
| MAHHHHHHMSFFRMKRRLNFVVKRGIEELWENSFLDNNVDMKKIEYSKTGDAWPCVLLRKKSFEDLHKLYYICLKEKNKLLGEQYFHLQNSTKMLQHGRLKKVKLTMKRILTVLSRRAIHDQCLRAKDMLKKQEEREFYEIQKFKLNEQLLCLKHKMNILKKYNSFSLEQISLTFSIKKIENKIQQIDIILNPLRKETMYLLIPHFKYQRKYSDLPGFISWKKQNIIALRNNMSKLHRLY | not soluble |
| MAHHHHHHMTELVPEAEVTFNCGSPSFPYVRVYRCFKTTNSGMLYRLEDDKGRWAFYNDTPLTVFNVYVKFNADSVVTSDTDVALEMTQGEWDYWATTVVLPGHTQRFVEGTISSFLLNFASEGELAKDVTFVNGTPTVGYDRVYRCFKQNANGMLFRLVKVERPGNECVWNFYNDSRELSVEVELTLIEKDSAKPLGDTQVIPPPDGVGVALYKIVVPPLKTVPFLRGHPRFSKQSYVAKSMYDENMLDASEITFENGQPDRAVIDYPRTKVFRGFNNNGNGLAFLLVDPEEKKWAFYNDTTNYNVTATVRFAAGSVYKAAANTRVEVDPAVEGGTVCTITVMPLATELFITEGNPEQYQISLSAECSTGPKPEENPDYQNGQPDTKVMLRWEKVYRCFKNRGNGLLFRLVGDNDRRWGFYNDTTDFIFTVTVSFENGETVKTLGNTSVSEDPELGKVFTLEVAPLSTEVFVFGDLSGYKTRFAARSVRCA | not soluble |
| MGMKYLIKLKYIKPAQLAVNREQKLAEFYPIFEDGTLGRVEAKARVFLPEYSDFAKGLGFEVKKRRMITEDDYAYLRAMVYGVVMGVLRNPGDWRRLEERVLEMEPIELRYWASKFRNAYWKYKNMRKLMFLARRFMEVEMILEHHHHHH | soluble |
| MGSDKIHHHHHHMTSSSRIAVRELPLFPLPEVVLFPTRPLPLHIFEFRYRIMMNTILESDRRFGVLMVDPVKGTIANVGCCAEIIHYQRLPDDRMKMLTLGQQRFRVLEYVREKPYRVGLVEWLEDHPPAKDLRPLATDVEQLLRDVVRLSAKITEQNIEIPEELPDLPTELSYWVASNLYGVAGEQQSLLEMQDTAARLEREAEILTTTRNHLAARSVLKDTFNPKL | not soluble |
| GSHHHHHHGSHMDEKLLKTIAESKYLVALTGAGVSAESGIPTFRGKDGLWNRYRPEELANPQAFAKDPEKVWKWYAWRMEKVFNAQPNKAHQAFAELERLGVLKCLITQNVDDLHERAGSRNVIHLHGSLRVVRCTSCNNSFEVESAPKIPPLPKCDKCGSLLRPGVVWFGEMLPPDVLDRAMREVERADVIIVAGTSAVVQPAASLPLIVKQRGGAIIEINPDETPLTPIADYSLRGKAGEVMDELVRHVRKALS | soluble |
| MWKRLCAGLSCRKFINQVTMTSVNKNRKSRDENEMAKYNEKELADTSKFLSFVLRHKPEAIGIVLDREGWADIDKLILCAQKAGKRLTRALLDTVVATSDKKRFSYSSDGRCIRAVQGHSTSQVAISFAEKTPPQFLYHGTASRFLDEIKKQGLIAGERHYVHLSADEATARKVGARHGSPVILTVKAQEMAKRGLPFWQAENGVWLTSTVAVEFLEW | soluble |
| MTEFSASLAPQVEAFLRYLSIERQLSPLTVTSYRRQLSALMEIGEQMGLAHWQTLDAAQVRSLVSRSKRAGLHASSLALRLSALRSFLNWLVSQGVLPANPAKGVSTPRSGRHLPKNIDVDEVNKLLSIDLNDPLAVRDRAMLEVMYGAGLRLSELVGMNCKHVDLASGDVWVMGKGSKERKVPLGKTAVTWLQHWLALRELFEPQDDAIFLANTGKRISARNVQKRFAEWGVKQGVSSHIHPHKLRHSFATHMLESSGDLRAVQELLGHANLTTTQIYTHLDFQHLATVYDAAHPRAKRGKS | not soluble |
| MNRILLYVHFNKYNKISAHVYYQLEQMRSLFSKIVFISNSKVSHEDLKRLKNHCLIDEFLQRKNKGFDFSAWHDGLITMGFDKLEEFDSLTIMNDTCFGPIWEMAPYFENFEEKKAVDFWGITNNRGTKAFKEHVQSYFMTFKNQVIQNKVFQQFWQSIIEYENVQEVIQHYETQLTSILLNEGFSYQTVFDTRKAESSFMPHPDFSYYNPTAILKHHVPFIKVKAIDANQHIAPYLLNLIRETTNYPIDLIVSHMSQISLPDAKYLLSQKYLNCQRLAKQTCQKVAVHLHVFYVDLLDEFLTAFEDWNFHYDLFITTDSDIKRKEIKEILQRKGKTADIRVTGNRGRDIYPMLLLKDKLSQYDYIGHFHTKKSKEADFWAGESWRKELIDMLVKPADSILSAFETDDIGIIIADIPSFFRFNKIVNAWNEHLIAQEMMSLWRKMDVKKQIDFQAMDTFVMSYGTFVWFKYDALKSLFDLELTQNDIPSEPLPQNSILHAIERLLVYIAWGNSYDFRILEHHHHHH | not soluble |
| MAHHHHHHMSKSIAVIAAGAPAALVQAASAMVSKATGGAVKAMQATSAASNAIVVGMQAPRGVYACVAEPPSTASGPYAGVKTVVVRAILPRRAPDTMQVRDILDVYPASGITCEQETAEAVESFSKAAKVAVEKAKAMKATRVTLVMKPATKYERLNSLFRETCTKTIEAAGLSVETATTAAATNTLIMFPEKMSVVMVSDDPVCENVQYAFAGVVGGAHTTYYTDAGSTIHGGHSYKSVAMALAEELKSLGMKAEAAKVEAAAQKSPRNAAAAM | not soluble |
| MSEILFINGKVRFPITIDPTVWIFDDRKVDLTTYFDETRENTSELETYLKNTSEHWDREIRDGAAFPPIQQSVKKYKKEQLITGTFGIPFHPFLANAEILEDATQVEIETVDHTMTLPLETVKNAILGFSKEGKPLKEDGPVHLYFNDGSNQQNPIRNIRKFTII | not soluble |
